Source: patent US20100158902A1 (ONO PHARMACEUTICAL, published 2010)

B1: 1C6 human monoclonal antibody (antibody, V domains shown)
VH: EVQLVESGRGLVQPGGSLRLSCAASGFTFSSYWMSWVRQAPGKGLEWVANMNQDGSEKYYVDSVKGRFTISRDNAKNSLYLQMNSLRAEDTAVYYCARDLTGPYYYDYYGMDVWGQGTTVTVSS
VL: AIRMTQSPSSVSASVGDRVTITCRASQGISSALAWYQQTPGKAPKLLIYDASSLESGVPSRFSGSGSGTDFTLTISSLQPEDFATYYCQQFNSYPRTFGQGTKVEIK
notes: Whole human monoclonal antibody with kappa light chain (VK L18), from a HuMAb Mouse; also called Z1/C6; mAb Z group antibody
B2: 2A5 human monoclonal antibody (antibody, V domains shown)
VH: QVQLVQSGGGLVQPGGSLRLSCAASGFTFSSYWMSWVRQAPGKGLEWVANMNQDGSEKYYVDSVKGRFTISRDNAKNSLYLQMNSLRAEDTAVYYCARDLTGPYYYDYYGMDVWGQGTTVTVSS
VL: DIQMIQSPSSLSASVGDRVTITCRASQGISSALAWYQQKPGKAPKLLIYDASSLESGVPSRFSGSGSGTDFTLTISSLQPEDFATYYCQQFNSYPRTFGQGTKVEIK
notes: Whole human monoclonal antibody with kappa light chain (VK L18), from a HuMAb Mouse; also called Z2/A5; Z2A5
B3: 1D3 human monoclonal antibody (antibody, V domains shown)
VH: EVQLVQSGAEVKKPGASVKVSCKVSGYTLTKLSVHWVRQAPGKGLEWMGSFDPEDGETIYSQRFQGRVTMTEDTSTDTAYMELTSLRSEDTAVYYCATEGQWLVAYYGMDVWGQGTTVTVSS
VL: EIVLTQSPSSLSASVGDRVTITCRASQGISSALAWYQQKPGKAPKLLIYDASSLESGVPSRFSGSGSGTDFTLTISSLQPEDFATYYCQQFNSYPLTFGGGTKVEIK
notes: Whole human monoclonal antibody with kappa light chain (VK L18), from a KM Mouse; also called B1/D3; mAb B group antibody
B4: 1H2 human monoclonal antibody (antibody, V domains shown)
VH: QVQLVQSGAEVKKPGASVKVSCKVSGYTFTKLSVHWVRQAPGKGLEWMGSFDPEDGETIYSQRFQGRVTMTEDTSTDTAYMELSSLRSEDTAVYYCATEGQWLVAYYGMDVWGQGTMVTVSS
VL: EIVLTQSPSSLSASVGDRVTITCRASQGISSALAWYQQKPGKAPKLLIYDASSLESGVPSRFSGSGSGTDFTLTISSLQPEDFATYYCQQFNSYPLTFGGGTKVEIK
notes: Whole human monoclonal antibody with kappa light chain (VK L18), from a KM Mouse; also called B1/H2; B1H2

Tests used:
[1] = target: T1, recombinant human SDF-1α (Peprotech) (human, UniProt P48061 22-89); assay: SPR (Biacore), antibody amine-coupled to CM5 chip, SDF-1 flowed at 5-40 nM right after dilution to maximize the dimer population, 1:1 Langmuir fit
T1 construct: Bought protein (Peprotech, cat. 300-28A); also called rh SDF-1α; Stromal cell-Derived Factor-1
T1 sequence (P48061 22-89 limits assumed): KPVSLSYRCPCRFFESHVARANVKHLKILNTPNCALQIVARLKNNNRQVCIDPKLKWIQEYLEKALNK
Experimental: The antigen-antibody association kinetics was followed for 2 minutes and the dissociation kinetics was followed for 8 minutes. The association and dissociation curves were fit to a 1:1 Langmuir binding model using BIAevaluation software (Biacore AB).

monomeric SDF-1 [2] = target: T2, monomeric SDF-1 (human, UniProt P48061 22-89); assay: SPR (Biacore), low density of SDF-1 covalently attached to CM5 chip, analyte at 10-50 nM
T2 construct: also called monomeric form of SDF-1; SDF-1 at low density on a CM5 chip
T2 sequence (P48061 22-89 limits assumed): as above

[3] = target: T1, recombinant human SDF-1α (Peprotech); assay: cell-based or functional assay
[4] = target: T1, recombinant human SDF-1α (Peprotech); assay: radio-labeled ligand binding assay: the antibody blocks binding of 100 pM 125I-SDF-1α to HuVEC cells (GAGs, no CXCR4); unit taken from the axis 'Ab conc in nM'
Description: (§1) An irrelevant antibody with the same isotype was used as a negative control.

[5] = target: T1, recombinant human SDF-1α (Peprotech); assay: radio-labeled ligand binding assay: the antibody blocks binding of 100 pM 125I-SDF-1 to CEM cells; unit taken from the axis 'Ab in nM'
Description: as §1

monomeric SDF-1 [6] = target: T2, monomeric SDF-1; assay: SPR (Biacore), low density of SDF-1 covalently attached to CM5 chip, analyte at 100-500 nM

Row | Binder | Kd [1] [nM] | koff [1] [s⁻¹] | kon [1] [M⁻¹ s⁻¹] | Kd (monomeric SDF-1 [2]) [nM] | koff (monomeric SDF-1 [2]) [s⁻¹] | kon (monomeric SDF-1 [2]) [M⁻¹ s⁻¹] | EC50, inhibition of SDF-1α (5 nM)-induced migration of CEM cells (Fluorescent Units) [3] [nM] | EC50 [4] [nM] | EC50 [5] [nM] | Kd (monomeric SDF-1 [6]) [nM] | koff (monomeric SDF-1 [6]) [s⁻¹] | kon (monomeric SDF-1 [6]) [M⁻¹ s⁻¹]
1 | B1 | 0.46 | 0.00064 | 1.4e+06 | 3.6 | 0.0004 | 110000 |  |  |  |  |  | 
2 | B2 | 0.37 | 0.0011 | 2.9e+06 | 4.6 | 0.00045 | 96000 | 0.543 | 0.0637 | 0.347 |  |  | 
3 | B3 | 0.63 | 0.0005 | 800000 |  |  |  |  |  |  | 151 | 0.0017 | 11000
4 | B4 | 1.32 | 0.00084 | 600000 |  |  |  | 0.498 | 0.013 | 0.117 | 176 | 0.0016 | 9100
